B1: LINE1-mini (parent)
chain: GGCAGAGCUCAACACAGCGUGGCAAAGUGGCUGUGGCUAGACUGCC

In the data set the parent is B1. The data set can be described thus: self-cleavage, relative activity (ratio to wild type); higher = more cleavage; in vitro, sequencing; the parent is a self-cleaving ribozyme.
Consider U28C U34A, for which the self-cleavage was found to be 0.22.

U28C U34G: the self-cleavage is 0.21.

Turning to U28G C37U, the self-cleavage amounted to 0.03.

With U28G C37A, the self-cleavage stood at 0.03.

As for U28G C37G, the self-cleavage worked out at 0.03.

Consider U28A U43A, for which the self-cleavage is 0.11.

Take U28A U43G: the self-cleavage stood at 0.03.

Take U28A U43C: the self-cleavage came out at 0.09.

For A26U U28C, the self-cleavage amounted to 0.74.

On to A26U U28A, for which the self-cleavage came out at 0.88.

On to A26U U28G, for which the self-cleavage stood at 1.74.

Turning to U28A G35C, the self-cleavage is 0.08.

In the case of U28A G35U, the self-cleavage turned out to be 0.18.

As to U28A G35A, the self-cleavage came to 0.15.

Take G27A A39U: the self-cleavage was found to be 0.59.

For G27A A39G, the self-cleavage is 0.08.

With G27A A39C, the self-cleavage came to 0.11.

G27U G30A: the self-cleavage was determined as 1.86.

Turning to G27U G30U, the self-cleavage worked out at 1.53.

On to G27U G30C, for which the self-cleavage came out at 1.79.

Consider U28C G44A, for which the self-cleavage is 0.67.

Turning to U28C G44C, the self-cleavage amounted to 0.27.

Consider U28C G44U, for which the self-cleavage was 0.34.

For U28C G29U, the self-cleavage is 0.77.

For U28C G29C, the self-cleavage is 1.2.

For U28C G29A, the self-cleavage is 0.37.

On to G27C A39U, for which the self-cleavage was found to be 0.76.

Turning to G27C A39G, the self-cleavage was determined as 0.06.

G27C A39C: the self-cleavage stood at 0.11.

As to U28A U38G, the self-cleavage was determined as 0.01.

As for U28A U38C, the self-cleavage is 0.38.

For the variant U28A U38A, the self-cleavage is 0.38.

Regarding G27U C45U, the self-cleavage stood at 1.6.

Consider G27U C45A, for which the self-cleavage was 0.92.

For G27U C45G, the self-cleavage is 0.37.

For the variant G27C U34A, the self-cleavage is 0.2.

With G27C U34G, the self-cleavage was 0.2.

Regarding G27C U34C, the self-cleavage worked out at 0.08.

For the variant G27U C31U, the self-cleavage was 0.33.

As for G27U C31G, the self-cleavage turned out to be 0.21.

For G27U C31A, the self-cleavage came to 0.46.

Regarding G27C G30U, the self-cleavage was 1.72.

Take G27C G30C: the self-cleavage amounted to 0.84.

On to G27C G30A, for which the self-cleavage is 1.2.

Take G27A G29A: the self-cleavage came to 0.65.

G27A G29U: the self-cleavage was determined as 0.5.

G27A G29C: the self-cleavage came to 0.36.

On to U28C C31U, for which the self-cleavage was 0.45.

U28C C31A: the self-cleavage turned out to be 0.87.

Consider U28C C31G, for which the self-cleavage was found to be 0.16.

Regarding G27A C37A, the self-cleavage amounted to 0.05.

For the variant G27A C37U, the self-cleavage was 0.05.

For the variant G27A C37G, the self-cleavage was determined as 0.02.

Turning to U28C C45G, the self-cleavage turned out to be 0.44.

Consider U28C C45A, for which the self-cleavage turned out to be 1.7.

As for U28C C45U, the self-cleavage turned out to be 1.88.

With G27C G33C, the self-cleavage was found to be 0.04.

As to G27C G33U, the self-cleavage came to 0.12.

G27C G33A: the self-cleavage was determined as 0.13.

As to A26U G40A, the self-cleavage was found to be 0.17.

With A26U G40C, the self-cleavage is 0.06.

Regarding A26U G40U, the self-cleavage is 0.13.

For the variant G27A A41C, the self-cleavage came to 0.04.

Consider G27A A41U, for which the self-cleavage was 0.49.

G27A A41G: the self-cleavage was determined as 0.38.

Turning to G27U U34A, the self-cleavage is 0.23.

For G27U U34C, the self-cleavage came to 0.19.

In the case of G27U U34G, the self-cleavage worked out at 0.26.

For G27A C42U, the self-cleavage turned out to be 0.26.

Turning to G27A C42G, the self-cleavage is 0.05.

Consider G27A C42A, for which the self-cleavage came out at 0.21.

For the variant G27C U38C, the self-cleavage turned out to be 0.29.

For G27C U38G, the self-cleavage was found to be 0.02.

Take G27C U38A: the self-cleavage was determined as 0.34.

With A26U U38C, the self-cleavage was 0.48.

As to A26U U38G, the self-cleavage was 0.03.

Regarding A26U U38A, the self-cleavage stood at 0.35.

Take U28A: the self-cleavage was determined as 0.71.

On to U28C, for which the self-cleavage was determined as 0.73.

In the case of U28G, the self-cleavage was found to be 0.64.

With U28C G33A, the self-cleavage worked out at 0.14.

For U28C G33C, the self-cleavage was found to be 0.06.

As for U28C G33U, the self-cleavage came to 0.08.

Turning to G27U U43C, the self-cleavage stood at 0.1.

As to G27U U43A, the self-cleavage stood at 0.17.

G27U U43G: the self-cleavage turned out to be 0.11.

Take G27U U38C: the self-cleavage worked out at 0.58.

Take G27U U38G: the self-cleavage was determined as 0.03.

As for G27U U38A, the self-cleavage is 0.39.

As for U28C C37U, the self-cleavage came to 0.06.

Consider U28C C37G, for which the self-cleavage was found to be 0.01.

As to U28C C37A, the self-cleavage worked out at 0.03.

As to U28C G35C, the self-cleavage was determined as 0.13.

Take U28C G35A: the self-cleavage is 0.21.

As for U28C G35U, the self-cleavage was 0.09.

On to U28A C31A, for which the self-cleavage came out at 0.83.

As to U28A C31G, the self-cleavage was found to be 0.13.

Regarding U28A C31U, the self-cleavage was determined as 0.54.

Take U28C G40A: the self-cleavage was found to be 0.09.

In the case of U28C G40U, the self-cleavage was 0.17.

With U28C G40C, the self-cleavage was 0.2.

Regarding U28C U32G, the self-cleavage worked out at 0.3.

U28C U32C: the self-cleavage was 0.27.

On to U28C U32A, for which the self-cleavage amounted to 0.09.

For U28C U38A, the self-cleavage is 0.1.

Regarding U28C U38G, the self-cleavage turned out to be 0.01.

In the case of G27C G35A, the self-cleavage was found to be 0.09.

Turning to G27C G35U, the self-cleavage amounted to 0.07.

With G27C G35C, the self-cleavage worked out at 0.25.

In the case of G27C G29C, the self-cleavage is 0.37.

Regarding G27C G29U, the self-cleavage came to 0.51.

With G27C G29A, the self-cleavage came out at 0.39.

As to G27A G36C, the self-cleavage turned out to be 0.25.

On to G27A G36U, for which the self-cleavage was 0.08.

On to G27A G36A, for which the self-cleavage was determined as 0.09.

Turning to G27A G30C, the self-cleavage was 1.53.

For the variant G27A G30A, the self-cleavage came out at 2.28.

For the variant G27A G30U, the self-cleavage stood at 1.61.

For the variant G27U G29U, the self-cleavage was found to be 1.03.

Consider G27U G29C, for which the self-cleavage is 0.27.

Turning to G27U G29A, the self-cleavage was found to be 0.96.

With G27A U34A, the self-cleavage came to 0.19.

With G27A U34C, the self-cleavage was 0.13.

Regarding G27A U34G, the self-cleavage was found to be 0.32.

As to G27A U43G, the self-cleavage stood at 0.05.

In the case of G27A U43A, the self-cleavage was 0.08.

As to G27A U43C, the self-cleavage worked out at 0.37.

Regarding U28C C42G, the self-cleavage came out at 0.13.

Consider U28C C42A, for which the self-cleavage stood at 0.16.

Take U28C C42U: the self-cleavage amounted to 0.15.

For U28A G29U, the self-cleavage worked out at 0.41.

With U28A G29C, the self-cleavage is 0.16.

U28A G29A: the self-cleavage was determined as 0.6.

Turning to U28C G36U, the self-cleavage was determined as 0.11.

With U28C G36C, the self-cleavage is 0.28.

Take U28C G36A: the self-cleavage came out at 0.1.

Regarding U28C A41U, the self-cleavage is 0.45.

On to U28C A41C, for which the self-cleavage turned out to be 0.03.

As to U28C A41G, the self-cleavage was 0.43.

With U28C U43C, the self-cleavage was 0.12.

For U28C U43A, the self-cleavage was determined as 0.08.

G27U C46U: the self-cleavage was 1.05.

Take G27U C46A: the self-cleavage was determined as 1.11.

For the variant G27U C46G, the self-cleavage stood at 0.76.

As for U28G C31A, the self-cleavage was 0.22.

For the variant U28G C31G, the self-cleavage amounted to 0.28.

Turning to U28G C31U, the self-cleavage was 0.47.

With G27U U32C, the self-cleavage was determined as 0.19.

G27U U32A: the self-cleavage turned out to be 0.07.

Regarding G27U U32G, the self-cleavage turned out to be 0.16.

Regarding G27C C46A, the self-cleavage amounted to 0.71.

In the case of G27C C46U, the self-cleavage amounted to 1.09.

Consider G27C C46G, for which the self-cleavage stood at 0.59.

For the variant G27C C37U, the self-cleavage amounted to 0.04.

In the case of G27C C37A, the self-cleavage turned out to be 0.06.

With G27C C37G, the self-cleavage worked out at 0.02.

In the case of U28G G30U, the self-cleavage was determined as 0.77.

As for U28G G30C, the self-cleavage was 0.77.

Take U28G G30A: the self-cleavage was determined as 0.9.

With U28A G30C, the self-cleavage stood at 0.62.

Take U28A G30A: the self-cleavage is 1.65.

Turning to U28A G30U, the self-cleavage was 0.77.

A26U U32C: the self-cleavage stood at 0.11.

As to A26U U32A, the self-cleavage was 0.11.

Consider A26U U32G, for which the self-cleavage was 0.36.

As for G27C G40C, the self-cleavage stood at 0.07.

Take G27C G40U: the self-cleavage was 0.12.

The values are drawn from the RNAGym collection of RNA variant scans (doi:10.7554/elife.90254).
